Laboratory results published in publication PMC9482650, “Quantitative fragmentomics allow affinity mapping of interactomes” (Nature Communications, 2022).

T1: APBA3_1, O96018
T1 sequence (O96018 389-490, limits assumed, looked up): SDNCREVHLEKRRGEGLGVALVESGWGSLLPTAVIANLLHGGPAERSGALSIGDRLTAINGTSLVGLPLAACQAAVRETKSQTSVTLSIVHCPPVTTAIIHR

T2: CARD11, Q9BXL7
T2 sequence (Q9BXL7 662-765, limits assumed, looked up): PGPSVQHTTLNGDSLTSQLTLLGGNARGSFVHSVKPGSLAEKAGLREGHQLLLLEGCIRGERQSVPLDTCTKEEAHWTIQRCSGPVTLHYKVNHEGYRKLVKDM

T3: DFNB31_1, Q9P202
T3 sequence (Q9P202 135-233, limits assumed, looked up): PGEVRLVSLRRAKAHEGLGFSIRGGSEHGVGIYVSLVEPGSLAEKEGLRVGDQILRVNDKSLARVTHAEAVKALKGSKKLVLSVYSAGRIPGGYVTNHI

T4: DVL3, Q92997
T4 sequence (Q92997 244-331, limits assumed, looked up): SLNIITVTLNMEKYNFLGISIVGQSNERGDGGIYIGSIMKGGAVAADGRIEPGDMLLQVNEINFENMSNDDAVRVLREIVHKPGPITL

T5: GRIP1_2, Q9Y3R0
T5 sequence (Q9Y3R0 145-248, limits assumed, looked up): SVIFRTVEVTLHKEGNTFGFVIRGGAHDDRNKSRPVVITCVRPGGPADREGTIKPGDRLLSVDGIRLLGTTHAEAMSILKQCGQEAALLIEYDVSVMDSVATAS

T6: HTRA3, P83110
T6 sequence (P83110 354-453, limits assumed, looked up): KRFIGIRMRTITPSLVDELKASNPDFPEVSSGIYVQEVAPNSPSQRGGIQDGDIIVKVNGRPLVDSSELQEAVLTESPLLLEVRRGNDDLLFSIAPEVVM

T7: LIN7A, O14910
T7 sequence (O14910 103-200, limits assumed, looked up): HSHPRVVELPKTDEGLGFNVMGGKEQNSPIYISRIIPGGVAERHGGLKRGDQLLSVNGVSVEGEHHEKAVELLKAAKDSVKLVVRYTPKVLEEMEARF

T8: LNX2_2, Q8N448
T8 sequence (Q8N448 334-432, limits assumed, looked up): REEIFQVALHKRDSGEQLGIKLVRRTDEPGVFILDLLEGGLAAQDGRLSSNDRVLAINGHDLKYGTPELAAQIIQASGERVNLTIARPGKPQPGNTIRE

T9: MPDZ_12, O75970
T9 sequence (O75970 1857-1958, limits assumed, looked up): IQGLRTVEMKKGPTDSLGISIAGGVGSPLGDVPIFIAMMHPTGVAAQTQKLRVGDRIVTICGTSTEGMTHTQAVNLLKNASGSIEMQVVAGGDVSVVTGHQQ

T10: PDZD7_3, Q9H5P4
T10 sequence (Q9H5P4 857-944, limits assumed, looked up): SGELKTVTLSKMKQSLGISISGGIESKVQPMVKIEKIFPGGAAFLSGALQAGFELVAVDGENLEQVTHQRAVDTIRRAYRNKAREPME

T11: PDZRN3_1, Q9UPQ7
T11 sequence (Q9UPQ7 244-349, limits assumed, looked up): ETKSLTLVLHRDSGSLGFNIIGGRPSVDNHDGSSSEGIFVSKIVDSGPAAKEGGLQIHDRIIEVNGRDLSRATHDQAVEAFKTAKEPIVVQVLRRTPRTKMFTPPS


Tests used:
Assay in all cases: holdup assay
Set-up in all cases: key: below the threshold = too weak to quantify, mostly under pKd 3.1 to 4
Conditions in all cases: plain residues with an end cap or a label only (N-terminal biotin on a linker: ado-ado)
APBA3_1, O96018 = biological target: T1, APBA3_1, O96018
CARD11, Q9BXL7 = biological target: T2, CARD11, Q9BXL7
DFNB31_1, Q9P202 = biological target: T3, DFNB31_1, Q9P202
DLG2_2, Q15700 = biological target: DLG2_2, Q15700
DVL3, Q92997 = biological target: T4, DVL3, Q92997
GORASP1, Q9BQQ3 = biological target: GORASP1, Q9BQQ3
GORASP2, Q9H8Y8 = biological target: GORASP2, Q9H8Y8
GRIP1_2, Q9Y3R0 = biological target: T5, GRIP1_2, Q9Y3R0
GRIP2_3, Q9C0E4 = biological target: GRIP2_3, Q9C0E4
GRIP2_6, Q9C0E4 = biological target: GRIP2_6, Q9C0E4
GRIP2_7, Q9C0E4 = biological target: GRIP2_7, Q9C0E4
HTRA3, P83110 = biological target: T6, HTRA3, P83110
Inadl_1, Q8NI35 = biological target: Inadl_1, Q8NI35
Inadl_4, Q8NI35 = biological target: Inadl_4, Q8NI35
Inadl_9, Q8NI35 = biological target: Inadl_9, Q8NI35
LAP2, Q96RT1 = biological target: LAP2, Q96RT1
LIN7A, O14910 = biological target: T7, LIN7A, O14910
LNX2_2, Q8N448 = biological target: T8, LNX2_2, Q8N448
MAGI1_1, Q96QZ7 = biological target: MAGI1_1, Q96QZ7
MAGI2_5, Q86UL8 = biological target: MAGI2_5, Q86UL8
MAGI2_6, Q86UL8 = biological target: MAGI2_6, Q86UL8
MPDZ_12, O75970 = biological target: T9, MPDZ_12, O75970
NHERF4_4, Q86UT5 = biological target: NHERF4_4, Q86UT5
PDZD7_3, Q9H5P4 = biological target: T10, PDZD7_3, Q9H5P4
PDZRN3_1, Q9UPQ7 = biological target: T11, PDZRN3_1, Q9UPQ7
SCRIB_3, Q14160 = biological target: SCRIB_3, Q14160
TJP2_1, Q9UDY2 = biological target: TJP2_1, Q9UDY2
TJP2_1, Q9UDY2, sequence (Q9UDY2 24-128): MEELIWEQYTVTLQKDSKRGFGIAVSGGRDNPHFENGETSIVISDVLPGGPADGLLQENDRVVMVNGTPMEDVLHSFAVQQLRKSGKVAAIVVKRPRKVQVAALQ

DLG2_2, Q15700, sequence (Q15700 189-283): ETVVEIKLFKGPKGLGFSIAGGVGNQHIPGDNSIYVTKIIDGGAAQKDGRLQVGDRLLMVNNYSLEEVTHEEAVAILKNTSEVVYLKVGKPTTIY
Inadl_1, Q8NI35, sequence (Q8NI35 113-229): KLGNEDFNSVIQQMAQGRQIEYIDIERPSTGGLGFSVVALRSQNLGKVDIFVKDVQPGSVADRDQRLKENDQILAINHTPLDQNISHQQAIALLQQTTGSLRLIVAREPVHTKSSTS
NHERF4_4, Q86UT5, sequence (Q86UT5 464-550): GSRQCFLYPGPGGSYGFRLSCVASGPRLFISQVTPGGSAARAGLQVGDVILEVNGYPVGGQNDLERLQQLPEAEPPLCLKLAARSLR
Inadl_9, Q8NI35, sequence (Q8NI35 1530-1615): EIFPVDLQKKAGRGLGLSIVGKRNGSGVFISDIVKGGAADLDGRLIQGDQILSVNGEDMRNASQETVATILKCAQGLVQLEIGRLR
GRIP2_3, Q9C0E4, sequence (Q9C0E4 238-339): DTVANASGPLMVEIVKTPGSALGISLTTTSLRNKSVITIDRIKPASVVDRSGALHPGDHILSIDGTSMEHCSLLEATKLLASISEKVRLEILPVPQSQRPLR
SCRIB_3, Q14160, sequence (Q14160 999-1103): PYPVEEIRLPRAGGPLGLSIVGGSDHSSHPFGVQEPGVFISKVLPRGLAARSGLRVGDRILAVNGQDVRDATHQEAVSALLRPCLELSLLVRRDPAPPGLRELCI
Inadl_4, Q8NI35, sequence (Q8NI35 547-651): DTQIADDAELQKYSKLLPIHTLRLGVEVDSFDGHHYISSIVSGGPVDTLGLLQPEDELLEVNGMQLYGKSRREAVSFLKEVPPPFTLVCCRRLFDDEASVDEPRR
MAGI2_6, Q86UL8, sequence (Q86UL8 1141-1229): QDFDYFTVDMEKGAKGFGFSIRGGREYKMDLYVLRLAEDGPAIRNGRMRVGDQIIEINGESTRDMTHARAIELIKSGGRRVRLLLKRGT
MAGI1_1, Q96QZ7, sequence (Q96QZ7 1-106): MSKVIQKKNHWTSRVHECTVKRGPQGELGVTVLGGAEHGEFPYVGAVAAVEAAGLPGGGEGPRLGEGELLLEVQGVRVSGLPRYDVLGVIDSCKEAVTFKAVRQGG
GORASP1, Q9BQQ3, sequence (Q9BQQ3 1-208): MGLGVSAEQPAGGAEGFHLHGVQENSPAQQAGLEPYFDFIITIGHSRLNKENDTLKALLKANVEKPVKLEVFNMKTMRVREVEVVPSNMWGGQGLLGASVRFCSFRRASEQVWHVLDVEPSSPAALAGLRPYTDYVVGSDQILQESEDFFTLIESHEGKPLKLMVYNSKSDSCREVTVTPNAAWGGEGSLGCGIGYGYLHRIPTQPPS
LAP2, Q96RT1, sequence (Q96RT1 other isoform, or with tags, fused parts or gaps): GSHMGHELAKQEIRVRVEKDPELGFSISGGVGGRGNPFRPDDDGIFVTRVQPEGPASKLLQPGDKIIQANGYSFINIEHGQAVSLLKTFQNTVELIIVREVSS
GRIP2_6, Q9C0E4, sequence (Q9C0E4 648-740): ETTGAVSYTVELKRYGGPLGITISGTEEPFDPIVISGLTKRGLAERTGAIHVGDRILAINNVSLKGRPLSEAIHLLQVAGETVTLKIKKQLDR
GRIP2_7, Q9C0E4, sequence (Q9C0E4 934-1023): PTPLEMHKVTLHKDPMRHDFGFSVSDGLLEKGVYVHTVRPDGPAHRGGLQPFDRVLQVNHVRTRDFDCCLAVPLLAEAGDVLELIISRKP
MAGI2_5, Q86UL8, sequence (Q86UL8 915-1017): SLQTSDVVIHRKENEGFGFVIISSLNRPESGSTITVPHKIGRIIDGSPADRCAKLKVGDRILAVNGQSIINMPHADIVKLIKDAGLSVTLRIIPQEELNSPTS

| Binder | pKd (APBA3_1, O96018) | pKd (CARD11, Q9BXL7) | pKd (DFNB31_1, Q9P202) | pKd (DLG2_2, Q15700) | pKd (DVL3, Q92997) | pKd (GORASP1, Q9BQQ3) | pKd (GORASP2, Q9H8Y8) | pKd (GRIP1_2, Q9Y3R0) | pKd (GRIP2_3, Q9C0E4) | pKd (GRIP2_6, Q9C0E4) | pKd (GRIP2_7, Q9C0E4) | pKd (HTRA3, P83110) | pKd (Inadl_1, Q8NI35) | pKd (Inadl_4, Q8NI35) | pKd (Inadl_9, Q8NI35) | pKd (LAP2, Q96RT1) | pKd (LIN7A, O14910) | pKd (LNX2_2, Q8N448) | pKd (MAGI1_1, Q96QZ7) | pKd (MAGI2_5, Q86UL8) | further results |
| --- | --- | --- | --- | --- | --- | --- | --- | --- | --- | --- | --- | --- | --- | --- | --- | --- | --- | --- | --- | --- | --- |
| QNRIITKTDV [SMCHD1, A6NHR9] | below the threshold | below the threshold | below the threshold | 3.93 | below the threshold | below the threshold | below the threshold | below the threshold | below the threshold | 3.49 | below the threshold | below the threshold | below the threshold | below the threshold | 3.55 | below the threshold | below the threshold | below the threshold | below the threshold | below the threshold | pKd (MAGI2_6, Q86UL8): below the threshold; pKd (MPDZ_12, O75970): below the threshold; pKd (NHERF4_4, Q86UT5): below the threshold; pKd (PDZD7_3, Q9H5P4): 4.13; pKd (PDZRN3_1, Q9UPQ7): below the threshold; pKd (SCRIB_3, Q14160): 3.81; pKd (TJP2_1, Q9UDY2): 3.61 |
| GDGLDDEIAV [NOS1AP, O75052] | below the threshold | below the threshold | below the threshold | below the threshold | below the threshold | below the threshold | below the threshold | below the threshold | below the threshold | below the threshold | below the threshold | below the threshold | below the threshold | below the threshold | 3.69 | 3.67 | below the threshold | 4.37 | below the threshold | below the threshold | pKd (MAGI2_6, Q86UL8): below the threshold; pKd (MPDZ_12, O75970): below the threshold; pKd (NHERF4_4, Q86UT5): below the threshold; pKd (PDZD7_3, Q9H5P4): below the threshold; pKd (PDZRN3_1, Q9UPQ7): below the threshold; pKd (SCRIB_3, Q14160): below the threshold; pKd (TJP2_1, Q9UDY2): below the threshold |
| YPKQMPLSQV [FZD8, Q9H461] | below the threshold | below the threshold | 3.59 | below the threshold | below the threshold | below the threshold | 3.56 | below the threshold | below the threshold | below the threshold | below the threshold | below the threshold | below the threshold | below the threshold | below the threshold | below the threshold | below the threshold | below the threshold | below the threshold | below the threshold | pKd (MAGI2_6, Q86UL8): below the threshold; pKd (MPDZ_12, O75970): below the threshold; pKd (NHERF4_4, Q86UT5): below the threshold; pKd (PDZD7_3, Q9H5P4): 4.17; pKd (PDZRN3_1, Q9UPQ7): below the threshold; pKd (SCRIB_3, Q14160): below the threshold; pKd (TJP2_1, Q9UDY2): below the threshold |
